Biological target: T1, wild-type CXCL12 (Homo sapiens (Human), UniProt P48061 22-89)
T1 construct: also called CXCL12WT; WT
Experiment: 125I-CXCL12 displacement from CXCR4
Procedure: A) The affinity of CXCL12 variants for CXCR4 was determined by ¹²⁵I-CXCL12 displacement. […] C) Intracellular calcium mobilization of cells stimulated by 10 nM CXCL12 variants was measured in the presence or absence of the Gαi inhibitor, pertussis toxin (PTX). From Drury, PNAS, 2011.

T1 sequence (P48061 22-89 limits assumed): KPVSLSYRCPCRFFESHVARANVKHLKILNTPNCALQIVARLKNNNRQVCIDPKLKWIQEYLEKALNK

B1: CXC chemokine receptor 4 (CXCR4) (receptor, UniProt P61073 1-352, looked up)
chain: MEGISIYTSDNYTEEMGSGDYDSMKEPCFREENANFNKIFLPTIYSIIFLTGIVGNGLVILVMGYQKKLRSMTDKYRLHLSVADLLFVITLPFWAVDAVANWYFGNFLCKAVHVIYTVNLYSSVLILAFISLDRYLAIVHATNSQRPRKLLAEKVVYVGVWIPALLLTIPDFIFANVSEADDRYICDRFYPNDLWVVVFQFQHIMVGLILPGIVILSCYCIIISKLSHSKGHQKRKALKTTVILILAFFACWLPYYIGISIDSFILLEIIKQGCEFENTVHKWISITEALAFFHCCLNPILYAFLGAKFKTSAQHALTSVSRGSSLKILSKGKRGGHSSVSTESESSSFHSS
A Kd of 25 nM was found for B1 in this work.
